Experimental data taken from publication PMC5962572, “Crystal structure of dihydrodipicolinate reductase (PaDHDPR) from Paenisporosarcina sp. TG-14: structural basis for NADPH preference as a cofactor” (Scientific Reports, 2018).
One block for each molecule: values may come before it.

Experiments:
PaDHDPR [1] = molecular target: T1, PaDHDPR (Paenisporosarcina sp. TG-14, UniProt A0A3B6UER2); assay: isothermal titration calorimetry; type: binding; conditions: 50 mM Tris-HCl, 150 mM NaCl, pH 8.0, 25 °C; 80 μM protein, 1 mM ligand
T1 construct: gene dapB; full length, residues 1-264; pET-28a N-terminal His tag removed by thrombin; expressed in E. coli BL21(DE3); homotetramer
T1 sequence (A0A3B6UER2 2-265): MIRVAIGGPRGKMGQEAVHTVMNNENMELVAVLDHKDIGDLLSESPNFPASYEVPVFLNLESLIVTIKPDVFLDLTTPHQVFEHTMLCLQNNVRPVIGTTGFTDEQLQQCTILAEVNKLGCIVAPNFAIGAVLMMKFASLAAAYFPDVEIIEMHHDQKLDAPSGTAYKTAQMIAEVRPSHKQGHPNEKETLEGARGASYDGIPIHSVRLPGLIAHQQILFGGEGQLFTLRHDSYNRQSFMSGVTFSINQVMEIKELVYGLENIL

PaDHDPR [2] = molecular target: T1, PaDHDPR; assay: X-ray crystallography, co-crystals, […] Å (binary) and […] Å (with NADPH); type: binding; conditions: 10 mM DPA; substrate site of the C-terminal domain; competitive inhibitor
PaDHDPR [3] = molecular target: T1, PaDHDPR; assay: isothermal titration calorimetry, one-site model; type: binding
PaDHDPR [4] = molecular target: T2, PaDHDPR (Paenisporosarcina sp. TG-14, UniProt A0A3B6UER2, K37A); assay: isothermal titration calorimetry, one-site model; type: binding
T2 construct: gene dapB; full length, residues 1-264; pET-28a N-terminal His tag removed by thrombin; expressed in E. coli BL21(DE3); homotetramer

PaDHDPR [5] = molecular target: T3, PaDHDPR (Paenisporosarcina sp. TG-14, UniProt A0A3B6UER2, H36A); assay: isothermal titration calorimetry, one-site model; type: binding; conditions: 50 mM Tris-HCl, 150 mM NaCl, pH 8.0, 25 °C
T3 construct: gene dapB; full length, residues 1-264; pET-28a N-terminal His tag removed by thrombin; expressed in E. coli BL21(DE3); homotetramer

[6] = molecular target: Dihydrodipicolinate reductase from Paenisporosarcina sp. TG-14 (Paenisporosarcina sp. TG-14); assay: AUC; analytical centrifugation of purified PaDHDPR; conditions not told in the main text
purified protein [7] = substrate: O=C(O)C1=N[C@H](C(=O)O)CC=C1; assay: purified protein; type: biochemical, Paenisporosarcina sp. TG-14; conditions: ASA (L-aspartate-semialdehyde) concentration varied and printed as the substrate, ASA fully converted to DHDP by PaDHDPS with 1 mM pyruvate, NADPH, 100 mM HEPES pH 7.5, 25 °C
purified protein [8] = substrate: NC(=O)C1=CN([C@@H]2O[C@H](COP(=O)(O)OP(=O)(O)OC[C@H]3O[C@@H](n4cnc5c(N)ncnc54)[C@H](OP(=O)(O)O)[C@@H]3O)[C@@H](O)[C@H]2O)C=CC1; assay: purified protein; type: biochemical, Paenisporosarcina sp. TG-14; conditions: NADPH varied, DHDP generated from ASA and pyruvate, 100 mM HEPES pH 7.5, 25 °C, varied: cofactor
purified protein [9] = substrate: NC(=O)C1=CN([C@@H]2O[C@H](COP(=O)(O)OP(=O)(O)OC[C@H]3O[C@@H](n4cnc5c(N)ncnc54)[C@H](O)[C@@H]3O)[C@@H](O)[C@H]2O)C=CC1; assay: purified protein; type: biochemical, Paenisporosarcina sp. TG-14; conditions: NADH varied, DHDP generated from ASA and pyruvate, 100 mM HEPES pH 7.5, 25 °C, varied: cofactor

T2 sequence (A0A3B6UER2 entry or part of it K37A): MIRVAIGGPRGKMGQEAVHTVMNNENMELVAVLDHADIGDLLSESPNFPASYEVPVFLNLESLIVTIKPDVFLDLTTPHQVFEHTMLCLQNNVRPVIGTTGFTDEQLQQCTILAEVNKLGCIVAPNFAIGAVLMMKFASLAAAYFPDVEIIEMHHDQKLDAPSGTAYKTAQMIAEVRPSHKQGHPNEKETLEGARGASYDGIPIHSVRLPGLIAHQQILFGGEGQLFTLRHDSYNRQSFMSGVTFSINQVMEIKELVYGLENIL
T3 sequence (A0A3B6UER2 entry or part of it H36A): as the sequence (A0A3B6UER2 entry or part of it K37A) above, with H35A, A36K counted along it

no binding detected (PaDHDPR [1]): NADH did not bind to PaDHDPR
Molecule: NC(=O)C1=CN([C@@H]2O[C@H](COP(=O)(O)OP(=O)(O)OC[C@H]3O[C@@H](n4cnc5c(N)ncnc54)[C@H](O)[C@@H]3O)[C@@H](O)[C@H]2O)C=CC1 [NADH]

Kd (PaDHDPR [3]): 37 µM
Kd (PaDHDPR [4]): 236 µM
Molecule: NC(=O)C1=CN([C@@H]2O[C@H](COP(=O)(O)OP(=O)(O)OC[C@H]3O[C@@H](n4cnc5c(N)ncnc54)[C@H](OP(=O)(O)O)[C@@H]3O)[C@@H](O)[C@H]2O)C=CC1 [NADPH]
no binding detected (PaDHDPR [5]): H35A mutation induced complete loss of binding affinity

Second part, the molecule before the results:

Molecule: O=C(O)c1cccc(C(=O)O)n1 [DPA]
X-ray crystallography, co-crystals, 1.8 Å (binary) and 2.1 Å (with NADPH) (PaDHDPR [2]): Electron density corresponding to DPA was observed in the substrate-binding site of the C-terminal domain

Molecule: Dihydrodipicolinate reductase from Paenisporosarcina sp. TG-14 (enzyme)
stoichiometry N [6]: 4

B1: PaDHDPR (Paenisporosarcina sp. TG-14) (protein)
chain: MIRVAIGGPRGKMGQEAVHTVMNNENMELVAVLDHKDIGDLLSESPNFPASYEVPVFLNLESLIVTIKPDVFLDLTTPHQVFEHTMLCLQNNVRPVIGTTGFTDEQLQQCTILAEVNKLGCIVAPNFAIGAVLMMKFASLAAAYFPDVEIIEMHHDQKLDAPSGTAYKTAQMIAEVRPSHKQGHPNEKETLEGARGASYDGIPIHSVRLPGLIAHQQILFGGEGQLFTLRHDSYNRQSFMSGVTFSINQVMEIKELVYGLENIL
notes: full length, residues 1-264; pET-28a N-terminal His tag removed by thrombin; expressed in E. coli BL21(DE3); homotetramer
Km (purified protein [7]): 12 ± 1.6 µM
kcat (purified protein [7]): 52 ± 1.1 s⁻¹
Km (purified protein [8]): 22 ± 1.4 µM
kcat (purified protein [8]): 55 ± 1.2 s⁻¹
Km (purified protein [9]): 43 ± 8.9 µM
kcat (purified protein [9]): 7.1 ± 0.1 s⁻¹
